{
  "source": "paper PMC6175958",
  "about": "“Formation of the β-barrel assembly machinery complex in lipid bilayers as seen by solid-state NMR” (Nature Communications, 2018)",
  "binders": {"B1": {"name": "BamAP4P5 (D264–W810) (domain or fragment)", "chain": "not shown", "notes": "BamA of E. coli, POTRA domains P4 and P5 plus the transmembrane β-barrel, residues D264–W810 (547 residues); Isotope labelled (AVLTI 13C/15N, or 13C-Ile, 13C-Phe and 15N-Gly) for the ssNMR samples; also called BamP4P5"}},
  "target": "T1, BamCDE complex (E. coli, UniProt P0A903 25-344; P0AC02 20-245; P0A937 20-113)",
  "T1 construct": "BamC, lipoprotein of the E. coli BAM complex; BamD, lipoprotein of the E. coli BAM complex; BamE, lipoprotein of the E. coli BAM complex; Unlabelled; also called BamCDE sub-complex; BamCDE subcomplex; copies: + +",
  "test": "SEC; equimolar combination of the detergent solubilized proteins, mild rotation 1 h at 4 °C, then gel filtration on HiLoad 26/600 Superdex 200 pg",
  "details": "both partners purified",
  "data": [
    {"binder": "B1", "values": [
      {"measurement": "binding result", "value": "binds"}
    ]}
  ]
}
